Assay results reported in PMC4596688 (2015).
Ends that are not written are not given here. * marks the point of attachment. FITC = O=C1OC2(c3ccc(O)cc3Oc3cc(O)ccc32)c2ccc(NC(=S)*)cc21

Experiments:
[1] = biological target: T1, Full-length human CRM1 (HsCRM1) (human, UniProt O14980 1-1071); test: MST; direct titration, left panel
[2] = biological target: T1, Full-length human CRM1 (HsCRM1); test: MST; direct titration, middle panel
[3] = biological target: T1, Full-length human CRM1 (HsCRM1); test: MST; direct titration, right panel
[4] = biological target: T1, Full-length human CRM1 (HsCRM1); test: MST; competition with FITC-PKI^NES

T1 sequence (O14980 whole entry): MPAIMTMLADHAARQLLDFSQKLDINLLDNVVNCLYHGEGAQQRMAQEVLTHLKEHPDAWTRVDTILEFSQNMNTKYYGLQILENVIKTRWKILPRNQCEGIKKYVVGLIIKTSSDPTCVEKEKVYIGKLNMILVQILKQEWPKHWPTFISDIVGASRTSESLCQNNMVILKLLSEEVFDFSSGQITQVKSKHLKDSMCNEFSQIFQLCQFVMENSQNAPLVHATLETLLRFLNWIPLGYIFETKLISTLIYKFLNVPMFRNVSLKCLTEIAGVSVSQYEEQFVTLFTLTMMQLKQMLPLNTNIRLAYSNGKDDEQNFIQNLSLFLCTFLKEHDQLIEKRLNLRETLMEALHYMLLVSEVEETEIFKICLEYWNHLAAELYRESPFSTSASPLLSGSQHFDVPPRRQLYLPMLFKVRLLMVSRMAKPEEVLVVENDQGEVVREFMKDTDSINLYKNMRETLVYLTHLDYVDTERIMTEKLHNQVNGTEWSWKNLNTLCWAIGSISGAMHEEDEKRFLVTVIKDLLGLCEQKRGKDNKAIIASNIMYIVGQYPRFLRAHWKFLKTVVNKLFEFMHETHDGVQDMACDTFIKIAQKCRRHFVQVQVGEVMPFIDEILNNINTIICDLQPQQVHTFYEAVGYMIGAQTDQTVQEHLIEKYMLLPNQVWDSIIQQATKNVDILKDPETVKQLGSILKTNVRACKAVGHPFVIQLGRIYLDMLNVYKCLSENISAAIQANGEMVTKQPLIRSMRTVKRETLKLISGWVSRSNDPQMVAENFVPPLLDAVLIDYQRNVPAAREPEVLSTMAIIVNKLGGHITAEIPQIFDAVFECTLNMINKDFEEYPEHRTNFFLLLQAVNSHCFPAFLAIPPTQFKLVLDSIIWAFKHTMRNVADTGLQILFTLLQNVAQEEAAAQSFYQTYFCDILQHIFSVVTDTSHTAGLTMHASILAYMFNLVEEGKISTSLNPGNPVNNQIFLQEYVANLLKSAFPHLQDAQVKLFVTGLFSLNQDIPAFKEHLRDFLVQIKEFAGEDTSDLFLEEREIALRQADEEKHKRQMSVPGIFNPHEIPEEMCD

Row | Binder | Kd [1] [nM] | Kd [2] [nM] | Kd [3] [nM] | Kd [4] [nM]
1 | {FITC}-SGNSNELALKLAGLDINKT [FITC-PKI^NES peptide (FITC-SGNSNELALKLAGLDINKT)] | 37 | 30 | 44 | 
2 | MEELSQALASSFSVSQ [MBP-SNUPN^NES] |  |  |  | 12000
3 | SNELALKLAGLDI [MBP-PKI^NES] |  |  |  | 36
